Source: PMC2754608, “Toll-Like Receptor 4 Decoy, TOY, Attenuates Gram-Negative Bacterial Sepsis” (PLoS ONE, 2009)

B1: myeloid differentiation protein-2 (MD-2) (natural protein, human, UniProt Q9Y6Y9 19-160, looked up)
chain: QKQYWVCNSSDASISYTYCDKMQYPISINVNPCIELKRSKGLLHIFYIPRRDLKQLYFNLYITVNTMNLPKRKEVICRGSDDDYSFCRALKGETVNTTISFSFKGIKFSKGKYKCVVEAISGSPEEMLFCLEFVILHQPNSN
notes: also called hMD-2

Experiments:
[1] = target: B1; assay: SPR; BIAcore 3000; TFE, TOY3 or TOY8 (1 µg) amine-coupled (NHS/EDC) on a CM5 chip at about 2,000 RU; BSA on a control portion of the chip; recombinant MD-2 flowed over; nonlinear curve fitting with BIAEVALUATION; details: both partners purified
[2] = target: T1, TLR4 full-length ectodomain fused to IgG-Fc (TFE) (human, UniProt O00206 27-631); assay: as above; details: both partners purified
T1 construct: Toll-like receptor 4 (TLR4), human, full-length ectodomain, amino acid residues 27-631; Disulfide-linked dimer through the Fc domain (non-reducing SDS-PAGE); N-glycosylated; source: recombinant CHO cells (dhfr-deficient, MTX amplification), secreted, purified (Protein-A sepharose); not shown: Fc (human IgG1), C-terminal, kept

| Kd [1] [nM] | Kd [2] [nM] | Binder |
| --- | --- | --- |
| ~76 | – | TLR4 decoy receptor-3 (TOY3) (Fc fusion, N-glycosylated (CHO). TLR4 27-227 limits are printed; VLRB.61 fragment limits are only in a figure, so taken from the TV3 hybrid crystal construct (PDB 2Z62, recalled from memory). Hagfish species …) EPCVEVVPNITYQCMELNFYKIPDNLPFSTKNLDLSFNPLRHLGSYSFFSFPELQVLDLSRCEIQTIEDGAYQSLSHLSTLILTGNPIQSLALGAFSGLSSLQKLVAVETNLASLENFPIGHLKTLKELNVAHNLIQSFKLPEYFSNLTNLEHLDLSSNKIQSIYCTDLRVLHQMPLLNLSLDLSLNPMNFIQPGAFKEIRLKELALDTNQLKSVPDGIFDRLTSLQKIWLHTNPWDCSCPRIDYLSRWLNKNSQKEQGSAKCSGSGKPVRSIICP |
| ~56 | – | TLR4 decoy receptor-8 (TOY8) (Fc fusion, N-glycosylated (CHO). TLR4 27-527 limits are printed; VLRB.61 fragment limits are only in a figure, so taken from the TV8 hybrid crystal construct (PDB 2Z63, recalled from memory). Hagfish species …) EPCVEVVPNITYQCMELNFYKIPDNLPFSTKNLDLSFNPLRHLGSYSFFSFPELQVLDLSRCEIQTIEDGAYQSLSHLSTLILTGNPIQSLALGAFSGLSSLQKLVAVETNLASLENFPIGHLKTLKELNVAHNLIQSFKLPEYFSNLTNLEHLDLSSNKIQSIYCTDLRVLHQMPLLNLSLDLSLNPMNFIQPGAFKEIRLHKLTLRNNFDSLNVMKTCIQGLAGLEVHRLVLGEFRNEGNLEKFDKSALEGLCNLTIEEFRLAYLDYYLDDIIDLFNCLTNVSSFSLVSVTIERVKDFSYNFGWQHLELVNCKFGQFPTLKLKSLKRLTFTSNKGGNAFSEVDLPSLEFLDLSRNGLSFKGCCSQSDFGTTSLKYLDLSFNGVITMSSNFLGLEQLEHLDFQHSNLKQMSEFSVFLSLRNLIYLDISHTHTRVAFNGIFNGLSSLEVLKMAGNSFQENFLPDIFTELRNLTFLDLSQCQLEQLSPTAFNSLSSLQVLNMASNQLKSVPDGIFDRLTSLQKIWLHTNPWDCSCPRIDYLSRWLNKNSQKEQGSAKCSGSGKPVRSIICP |
| – | ~81 | B1 |
